Biological target: cynomolgus CD19 (cynomolgus)
Experiment: Octet HTX (ForteBio), IgG on AHC sensor, 1:1 fit

B1: CNG-CD19-702 (antibody, V domains shown)
VH: QVQLQESGPGLVKPSQTLSLTCTVSGGSTSTSGMGVSWIRQHPGKGLEWIGHIWWDDDKRYNPVLKSRVTISVDTSKNQFSLKLSSVTAADTAVYYCARMELWSYYFDPWGQGTLVTVSS
VL: EIVLTQSPATLSLSPGERATLSCSASSSVSYMHWYQQKPGQAPRLLIYDTSKLASGIPARFSGSGSGTDFTLTISSLEPEDFAVYYCFQGSVYPFTFGQGTKLEIK
Kd: 1.3 nM | koff: 0.000295 s⁻¹
